These results are taken from the DeepSol protein solubility set.

This data set can be described thus: soluble on expression in E. coli; label from the status in PepcDB or PDB records.
Take “GPGSMRRFPPPPPTRTCAHERVKHAVPIPFRVTCFWPAMSAAPSEAFAEAETMEQLRLKGNACFADDPAEAAKYYTQAVQLYEERHGEDAACSLDEFTKSAGNALTCLFKMGETEQCAALAVRVLASNPILAKANAFYGRCALVDPSLDSVSTGFGTASAAALVHLCRAIYELPALEPNTRENIDEALTRLIGERVSVTETFARSPEAGVKLVRGQCGVGVEAIRTLPPLVEVVSLLTPFSVGAFEDFAGKGCCVECSKPIGLDVADAAAEEPNEDDGDEENDKDEGNVKATKEKPSTCTACNMVVYCSPACADAHREQHERFECARMTRLSDMMQGIEARKLDVPEQFFELAYHCITTLAGIKAKRAGHERVLTLTAHVDEVIQSLHPIGPLMCDLFKGEERPATLYTIIGVLCCNALELADPSGLGVAQALHAGNSIASFFNHSCTPNCAIDTVRHAIVTTRTIHVGEELSIAYIPQLYWPTRLRRERLSESYYFVCRCQRCESSNKDPFERALSMELPTARREATKHFHPIVQTTCATVRSRMVGDVSQKDADELSKLLRELSTHLFPFHYLCHEVRNCLSFVYAVLGQTRECLCSCLDELLMWECILPGALPVKRMKIENALQCVQGFGANVSDCSAALLPHLSRLALVYDAEGPI”: the “soluble on expression in E. coli” value is reported as “not soluble”.

As to “MAHHHHHHMVALEREYILGSFCELRIITSLSSTQLSKVTLRKPVEDEDTSTAERAEVFGTELIPGVPVHLPPGRSLSIFTSTGCTLLLVAAPTVLQRCYATSLGATWVRSLLDFHSHLERARVEARGRDDVGPRVLFVSDRHHCGASTYVRWLSNFAVRLGYHPLLLDGVLDTPAFAFPGSVALFHAQHCMDIEEEMNLTPGLYAQVGQSRVANPRLYQHWVQQLLPSGMEKMARSERCRVGGLFFDFGVVEPHAVEQAEAAAAAAVPSVDPTASASSAPAALGSDKSHTNPLDTLLDTIVAADIDHVCVVGSSWLRWKLVQRAWERFGGEGSMSIVQAMLDPRWNVPPEVDCGGGQHFKIFLLDSVELVRSVPVPLWNRQRWLQYFFGTPTSPVKPTLITLEASQVRVATVGAAAMDAMSTLLPMMDSEDVDRQKADVAAVSFITLQDVALKDRIVAISTATEYERSPDGELHRLPFSVFERRIRQSTVLGFALVESVTPERLTLLVSGCPLDKELGLCFLLTEEVLKS”, the “soluble on expression in E. coli” value is on record as “not soluble”.

“MGSDKIHHHHHHMGRRLRVEYLGAMYHVVQRGNNREFIFGRPDERDYLIEQVGNAVKVDGVTVFAYVVMSNHYHLLLRTDGEFLSKVMHRVNTRYSRFFNCDSGRDRTGVVFEGRYKAILVQNDDYLLSLVRYIHRNPLRAGIVSRFCDYRWSSDACYRQQGNGPGGGDFVNCDLILRMFSDKKQIALREYKRFMENDDGKDWENIPCIGDDSFAQLAEPRKEKAGRVSLDEILINTGVDNEEFQLIKQGSRKRLLQKYKIAFTGEAIGQGYTMREIGQHIKLSHVAISHLFNSKQDSK”: the “soluble on expression in E. coli” value is listed as “not soluble”.

On to “AHHHHHHGSKIPDDVRKDIPLTQEVIYFDNTATSLTPKPVIEAMDEYYLKYRANVHRGVHRLSQMATQKYEESRKVVADFINAKFEEIVFTKNTSESLNLVALGLEHTFKKGDKIVTTPYEHHSNLLPWQRLAKKLGLKLEFIEGDDEGNLDLSDAEKKIKGAKLVAVQHVSNALGVIHEVEELGRMAKEEGAIFVVDAAQSVGHMEVDVKKLNADFLAFSGHKGPMGPTGIGVLFISEEYFDVFDPPLIGGGTIEDVDLCCYKLTEPPERFEAGTPNIGGAIGLAAGIKYIEKIGIEKIEKQERKLVKRTTEGLDELEIPWYGPRNLDKHAGVVSFNVPPLHPHDVAAVLDEHKIMVRSGHHCALPVMKKLGINGTVRASFHVYNSVEEVEIFLGVLEDLVRKIRGAL”, for which the “soluble on expression in E. coli” value is “soluble”.

On to “MTTTTPIRLLVRPITAGDNLAIANVIREVSAEFGLTADKGYTVSDPNLDHLYELYSQPRSAYWVIEVDGHIAGGGGVAPLLGGEADLCELQKMYFLPILRGKGLAKQLALQALAFARQQGFGRCYLETTASLTSAVGLYERLGFEHIGGAMGNTGHVDCEVTMLKTL”, for which the “soluble on expression in E. coli” value is recorded as “not soluble”.

Take “MMDSCIRIAGIIGESIVDGPGIRLVVFAQGCPHHCPGCHNPETHAYEGGKSVAIAEILQRLAMNPLLDGITLSGGEPFAQAAGFALLAQSARQRGFHVMTYSGYTYEELTASSEQNPAWALLLEQTDLLVDGPFQLAERNLLLPFRGSENQRVIDVQESLRQGKVVLASVLEHHHHHH”: the “soluble on expression in E. coli” value is recorded as “not soluble”.

As to “RQEQRRTDHELREQLHFRQALIDAIPAPIYFMDTTGIFLGCNKAFEAFSGHTQDEIVGKTIYDLMPPSLAKHTDSADRELFEHGGIQIYESVISFADGALHDVIFYKATFTTTEKNIGGLVGTILDIT”, the “soluble on expression in E. coli” value is listed as “not soluble”.
